According to patent US20030124598A1:

Molecular target: GAL4-PGC-1β (yeast; mouse) (UniProt P04386)
Assay: cell-based or functional assay

transcriptional activity of PGC-1β in a cotransfection assay (luciferase, BOSC cells, FIG. 9A): 3 fold
Substance: Flag-tagged HCF
